The test system of this series is T1, GST-NolA (Bradyrhizobium guangxiense CCBAU53363), ORF:43be7f56.
T1 sequence: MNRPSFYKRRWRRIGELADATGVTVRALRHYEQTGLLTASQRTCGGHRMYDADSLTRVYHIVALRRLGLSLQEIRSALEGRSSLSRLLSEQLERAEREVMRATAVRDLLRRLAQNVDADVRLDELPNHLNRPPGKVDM
The series can be described thus: EMSA. Conditions: EMSA: 10 uL, 1x binding buffer (composition, salt and pH not stated), 1 mg/mL BSA, 1 mg/mL salmon sperm DNA, 25 C, 30 min; 6% native PAGE in TB buffer (44.5 mM …).

Regarding “TGTGAACCATAGGAGAGTGCTCATCATGTACGGTCGAATCAACAATTTTTCCGAGAACGAAACTTATTATCGGCAAGATGCGGAGCATTCGAATTGCGAAAGCCAAGACTTCGCGGACGCGTTCGCTAGAATGCAGTTGCAAGATTCGGCCGGCAG (double strand) [nopP promoter probe]”, the binding entry was “no binding”.
